Here are results for 2 molecules from patent US20090137002A1 (published 2009).

As a reminder, the Kd is the concentration at which binding is half-saturated.

Test [1] concerns the target T1, recombinant human EphB4-Fc fusion protein (human, UniProt P54760 16-539).
T1 construct: extracellular domain; also called hEphB4; hu EphB4-Fc
T1 sequence (looked up): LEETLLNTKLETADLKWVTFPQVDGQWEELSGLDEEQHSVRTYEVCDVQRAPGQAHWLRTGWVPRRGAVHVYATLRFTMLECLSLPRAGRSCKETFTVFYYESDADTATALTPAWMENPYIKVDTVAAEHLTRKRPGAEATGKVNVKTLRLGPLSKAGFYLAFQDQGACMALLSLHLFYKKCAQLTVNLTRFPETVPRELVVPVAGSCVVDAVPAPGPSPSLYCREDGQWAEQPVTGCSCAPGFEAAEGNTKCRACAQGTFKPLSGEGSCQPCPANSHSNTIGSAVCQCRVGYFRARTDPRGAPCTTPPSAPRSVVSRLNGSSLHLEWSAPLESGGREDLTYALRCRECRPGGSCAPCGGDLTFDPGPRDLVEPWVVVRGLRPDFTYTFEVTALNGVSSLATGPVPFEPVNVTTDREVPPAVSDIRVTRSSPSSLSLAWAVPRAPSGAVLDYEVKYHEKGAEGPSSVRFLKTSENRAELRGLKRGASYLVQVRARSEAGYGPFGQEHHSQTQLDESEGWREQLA
In words: competition ELISA on coated hEphB4, competitor biotinylated mEphrinB2 250 ng/mL. The protocol:
A 96-well plate was coated with recombinant hEphB4 in PBS o/n at 4° C. (5 μg/mL; 100 μL/well). The next day, the antigen was discarded and the plate blocked with 3% BSA/PBS (300 μl/well) for 2 hrs at room temperature (RT). Blocking solution was discarded and anti-EphB4 Fabs were added to the wells at different concentrations in 1% BSA/PBS and incubated for 30 min at RT. Recombinant biotinylated murine EphrinB2 was added at a final concentration of 250 ng/mL and incubated at RT for a further 30 min. The plate was washed and bound EphrinB2 was detected with Streptavidin-HRP (incubation 30 min at RT) and chemifluorescent substrate.

The target in test [2] is T2, recombinant murine EphB4-Fc fusion protein (mouse, UniProt P54761 16-539).
T2 construct: extracellular domain; also called mEphB4; mu EphB4; not shown: Fc part, not described
T2 sequence (looked up): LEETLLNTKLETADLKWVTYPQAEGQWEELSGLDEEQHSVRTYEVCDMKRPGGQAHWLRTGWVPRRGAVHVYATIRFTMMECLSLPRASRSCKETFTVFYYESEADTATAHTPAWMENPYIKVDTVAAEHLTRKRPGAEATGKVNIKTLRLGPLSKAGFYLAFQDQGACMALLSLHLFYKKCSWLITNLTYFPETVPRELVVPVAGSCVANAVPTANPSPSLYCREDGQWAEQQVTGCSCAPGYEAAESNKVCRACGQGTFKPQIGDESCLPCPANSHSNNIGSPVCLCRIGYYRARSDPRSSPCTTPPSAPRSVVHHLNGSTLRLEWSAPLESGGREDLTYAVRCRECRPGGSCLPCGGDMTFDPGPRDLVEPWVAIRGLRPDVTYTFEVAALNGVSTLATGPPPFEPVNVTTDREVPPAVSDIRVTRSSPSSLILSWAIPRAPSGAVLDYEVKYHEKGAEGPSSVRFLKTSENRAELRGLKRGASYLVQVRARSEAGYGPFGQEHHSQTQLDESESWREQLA
The test can be described thus: SET (MSD), solution equilibrium titration; n = 1. The method, then: Two independent measurements were performed on human and murine EphB4-Fc.

Another test addresses T3, recombinant mouse EphB2 (mouse, UniProt P54763 19-540, limits assumed).
T3 construct: also called mEphB2
T3 sequence (looked up): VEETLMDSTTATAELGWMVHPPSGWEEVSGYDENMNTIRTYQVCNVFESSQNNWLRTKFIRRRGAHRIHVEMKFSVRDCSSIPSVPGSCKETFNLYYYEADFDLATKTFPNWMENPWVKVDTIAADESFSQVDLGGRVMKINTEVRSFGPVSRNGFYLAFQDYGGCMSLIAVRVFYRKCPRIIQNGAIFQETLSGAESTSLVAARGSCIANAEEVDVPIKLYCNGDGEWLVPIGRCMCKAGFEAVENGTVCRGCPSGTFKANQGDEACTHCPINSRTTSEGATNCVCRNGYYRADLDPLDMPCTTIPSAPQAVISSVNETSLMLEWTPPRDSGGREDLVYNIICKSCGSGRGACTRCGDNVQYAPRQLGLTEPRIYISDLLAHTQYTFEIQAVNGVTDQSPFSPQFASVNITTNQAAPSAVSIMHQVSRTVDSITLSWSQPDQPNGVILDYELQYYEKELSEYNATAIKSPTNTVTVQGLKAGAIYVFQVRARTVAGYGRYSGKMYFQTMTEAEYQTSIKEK
The test can be described thus: ELISA, well M15 [part 2]. On the technique in general: In an ELISA, binding on a coated surface is turned into a signal by an enzyme label.

The target in a further test is T4, rat EphB1 (rat, UniProt P09759 18-538, limits assumed).
T4 sequence (looked up): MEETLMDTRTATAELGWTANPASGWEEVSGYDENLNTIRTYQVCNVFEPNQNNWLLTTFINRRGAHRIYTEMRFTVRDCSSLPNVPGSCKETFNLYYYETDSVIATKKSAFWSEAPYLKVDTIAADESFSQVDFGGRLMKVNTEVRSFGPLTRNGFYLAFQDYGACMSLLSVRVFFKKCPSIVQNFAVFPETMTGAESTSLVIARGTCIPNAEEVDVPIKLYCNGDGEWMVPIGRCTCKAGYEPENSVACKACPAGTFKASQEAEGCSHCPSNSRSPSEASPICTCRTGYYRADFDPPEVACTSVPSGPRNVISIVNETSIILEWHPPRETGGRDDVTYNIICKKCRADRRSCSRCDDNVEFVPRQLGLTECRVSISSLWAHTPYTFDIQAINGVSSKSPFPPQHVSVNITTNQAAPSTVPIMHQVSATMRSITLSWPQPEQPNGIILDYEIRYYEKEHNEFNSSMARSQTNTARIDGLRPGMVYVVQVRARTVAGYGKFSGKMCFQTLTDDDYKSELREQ
In words: ELISA, well L15 [part 2].

B1: MOR03641 Fab (Fab, V domains shown)
VH: QVQLVQSGAEVKKPGSSVKVSCKASGGTFSTYAISWVRQAPGQGLEWMGRIIPIFGTANYAQKFQGRVTITADESTSTAYMELSSLRSEDTAVYYCARSSYTILTTYYNYNAMDNWGQGTLVTVSS
VL: DIQMTQSPSSLSASVGDRVTITCRASQNINNFLNWYQQKPGKAPKLLIYGSSILQSGVPSRFSGSGSGTDFTLTISSLQPEDFAVYYCHQVSDTSDTFGQGTKVEIKR
notes: Monomeric HuCAL Fab (VH1A, kappa1), purified, MH-tagged; also called 3541 [sic]
B1: the “IC50 (read off the curve)” value in test [1] was around 4 µg/mL.

B2: MOR03640 Fab (Fab, V domains shown)
VH: QVQLVESGGGLVQPGGSLRLSCAASGFTFNNSWMSWVRQAPGKGLEWVSNITSSSSMTHYADSVKGRFTISRDNSKNTLYLQMNSLRAEDTAVYYCARKGMSFYNNKYAKSMFDLWGQGTLVTVSS
VL: DIELTQPPSVSVAPGQTARISCSGDNLGKKYVHWYQQKPGQAPVLVIYYDSKRPSGIPERFSGSNSGNTATLTISGTQAEDEADYYCSAWTTTMMHIVFGGGTKLTVLG
notes: Monomeric HuCAL Fab, purified, MH-tagged
For the molecule B2, the dissociation constant Kd in test [2] worked out at 6.63 nM. Also, the binding result with recombinant mouse EphB2 and in the test with rat EphB1 was “no binding” each time.
